Experimental data reported in the supplement of paper PMC9170038.

Tested on: MS2 coat protein
Experiment: apparent KD of MS2 coat protein; designed switch direction (-1 OFF switch, 1 ON switch): -1; higher = weaker reporter binding
In short: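 On Illumina chips, designed RNA switches with common flanks were made by stalled E. coli RNA polymerase. Titrations with SNAP-549-labelled MS2 coat protein, doubling from 0.7 or 1.5 nM to 3 µM, were done with no input, with 200 uM small-molecule ligand, or with an oligonucleotide input. Apparent KD is the median per design over clusters, from curve fits of normalised cluster fluorescence.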

[1] = Eterna round: R95, input ligand: FMN 200 uM
[2] = Eterna round: R95, input ligand: microRNA oligo, concentration not stated
[3] = Eterna round: R95, input ligand: none
[4] = input ligand: microRNA oligo, concentration not stated

Row | Sequence | apparent KD of MS2 coat protein (input ligand: FMN 200 uM) [nM] | apparent KD of MS2 coat protein (input ligand: none) [nM] | apparent KD of MS2 coat protein [1] [nM] | apparent KD of MS2 coat protein [2] [nM] | apparent KD of MS2 coat protein [3] [nM] | apparent KD of MS2 coat protein [4] [nM]
1 | UAUCAACAUGAGGAUCACCCAUGUGAGGAUAUCAAAACCAGAGCGGAUCUCUGGCCCAUGAGAAGGUACAUGGU [ElNandoxlusion 6 - Jieux - Exclusion 1] (Eterna round: R97, puzzle: Exclusion 1) | 111 | 22.3 |  |  |  | 
2 | UAUUAACAAGCAAGAUCCCACAUGAGGAUCACCCAUGUGCUCGUCUUAUAAGGUACUGUGACGAAAGUCACGGUACC [Sensor 3, v1 - 80] (puzzle: Sensor v3, turn-off variant 1) |  |  | 26.5 | 580 | 28 | 
3 | GUUAUGUCAGGAUAUGCUAAUGAUGAGUGAUCAGACAUGAUGUAGAAGGGACAUGAGGAUCACCCAUGUAAUAU [EX4 #8] (Eterna round: R97, puzzle: Exclusion 4) | 114 | 122 |  |  |  | 
4 | AUAAUGUCAGGAUAUCGAGACUACUGCCUCGGCAGUAGUCUCGAGAAGGGACAUGAGGAUCACCCAUGUGAUCA [E4/1-A2] (Eterna round: R97, puzzle: Exclusion 4) | 831 | 45.2 |  |  |  | 
5 | GCAGAAAGUGUAGGAUAUAGAUAUUAGCGGAAACGCAAUACAUGAGGAUCACCCAUGUUUCCUCACUAGAAGGGCAAAAGCUGC [EXNG2 V2 d] (Eterna round: R96, puzzle: Exclusion NG 2) | 18.7 | 17.2 |  |  |  | 12.5
6 | AACUCACAUGAGGAUCACCCAUGUGAGGAUAUGGAUUCGCUGGCCGUAGCCAGUGGAUCCAGAAGGCGCAUGAU [JL-ex1-4.10] (Eterna round: R97, puzzle: Exclusion 1) | 23.1 | 21.2 |  |  |  | 
7 | GUAUAACAUGUAGGAUAUGCGUGGCGAAGCUAUGCAGAAGGACAUGAGGAUCACCCAUGUAAUAGCGUCUGCGUACAGAUGCAA [Mat - Exclusion NG 1 - Mod of JL - D90] (Eterna round: R96, puzzle: Exclusion NG 1) | 134 | 40.8 |  |  |  | 27.9
8 | UACCUGUAGGUAGGAUAUCAUUGCGAUUAGCUAUGAGAAGGACCACAUGAGGAUCACCCAUGUCUACUCAGGAACCGAAAGGUC [Fiskers ExNg1 - 1] (Eterna round: R96, puzzle: Exclusion NG 1) | 13 | 17.3 |  |  |  | 10.4
9 | AGGUCCUUCUGGAGACAUGAGGAUCACCCAUGUCGAGUCAGCGAGGAUAUCGGUUAAUAAUGUGAUGAGAAGGCGCGGACCGAU [Ex NG3 #54] (Eterna round: R96, puzzle: Exclusion NG 3) | 41.5 | 19.3 |  |  |  | 11.6
10 | UUUUUUGUAGUGAGGAUAUCGUUGUGGAUGUGGAUCGAGAAGGCACAUGAGGAUCACCCAUGUUAGUUGUGGUU [JR_BMOE4_Sub084] (puzzle: Brourd's mod of Exclusion 4) |  |  |  | 188 |  | 
11 | UACAUGAGGAUCACCCAUGUUUUGUCGUGUAUGGUAUUUAUCUAGGAUAUCAAUUGGUUUAUUUAUGAGAAGGAGAAUAUUAAU [JMF's solution 57] (Eterna round: R96, puzzle: Exclusion NG 3) | 36.1 | 33.3 |  |  |  | 31.6
12 | CCAAACUGAGGAUAUACAUGAGGAUCACCCAUGUGCCCGCGGUCAUAUGUAGCCUAGUGUAGAAGGCAGAAAAC [Rearle] (Eterna round: R96, puzzle: Exclusion 3) | 24.9 | 50.9 |  |  |  | 41.8
13 | UGGCUGCUUAUGGAGUGUGACAUGAGGAUCACCCAUGUGGUAGUAAGGAACAAGCUUUUUACACGUACUUAUAAAGC [JR_SV3TOV1_Sub012] (puzzle: Sensor v3, turn-off variant 1) |  |  | 296 | 64.3 | 438 | 
14 | UGUACGAUGCGUGCUGACAUGCGUCGUGCAGCAGGUGUUACAUGAGGAUCACCCAUGUCCUCAUUUGCUCGUCUUGU [SL-sv3-2.09 JL mod] (puzzle: Sensor v3, turn-off variant 2) |  |  | 379 | 185 | 374 | 
15 | UGAAGGUCAGGAUAUGAGUCUAUCUGACGCAGACAUAGACAUUAGAAGGGACAUGAGGAUCACCCAUGUGGGAC [Eternabot (L1) Solution 29] (Eterna round: R97, puzzle: Exclusion 4) | 106 | 84.8 |  |  |  | 
16 | AAUUCACAUGAGGAUCACCCAUGUCAGGAUAUGGUUUCACGUUUUUCUUUGCUUGAGGCCAGAAGGGACAGCUA (puzzle: Exclusion 1) |  |  |  | 54.2 |  | 
17 | AUCCAGCGAGGAUAUACUUUGUUUUUUUCGUUUUGUCUCGAACAUGAGGAUCACCCAUGUAGAAGGUGCUUCAC [JR_Ex2_Sub005] (Eterna round: R97, puzzle: Exclusion 2) | 60.8 | 69.7 |  |  |  | 
18 | UAAUUAAUAAGAUCAAUUAAUUAACAUGAGGAUCACCCAUGUGAGGAUAUCAGCUCGUGUAGAGCUGAGAAGGCACAAUAAUUA [ExNG3/17-C3] (Eterna round: R96, puzzle: Exclusion NG 3) | 203 | 51.9 |  |  |  | 38.8
19 | CACCAGAGAGGAUAUGCACUCAUGGCACCGAAAGGGAGGCGACAUGAGGAUCACCCAUGUAGAAGGCUCAGCAG [Eternabot (Original) Solution 16] (Eterna round: R97, puzzle: Exclusion 2) | 153 | 70.6 |  |  |  | 
20 | AACCUGAGGCUUUGCUUUAGGUUUACAUGAGGAUCACCCAUGUAGGAUAUGGUAGGCUUUGCUUACCAGAAGGACAUGAAAAUU [Mat - Exclusion NG 3 - Mod of JL - D28] (Eterna round: R96, puzzle: Exclusion NG 3) | 225 | 44.2 |  |  |  | 40.4
21 | GCCAUGUGAGGAUAUGUGGUCGAAUAUGAAAGUGAUUGACCAUAGAAGGCACAUGAGGAUCACCCAUGUCCUUU [Eternabot (L2) Solution 64] (Eterna round: R97, puzzle: Exclusion 4) | 131 | 27.3 |  |  |  | 
22 | UACCUGAGGCUUUGCUUUAGGCUUACAUGAGGAUCACCCAUGUAGGAUAUGGUAGGCUUUGCUUACCAGAAGGACAUGGAAAUU [Mat - Exclusion NG 3 - Mod of JL - D20] (Eterna round: R96, puzzle: Exclusion NG 3) | 349 | 70.7 |  |  |  | 63
23 | UUUGUAUAGGUAGGAUAUACUUUCAAUUUUUUUUUCCUUACAUGAGGAUCACCCAUGUUUACAUUGUAGAAGGACCUCAUUGUU [JR_ExcNG2_Sub049] (Eterna round: R96, puzzle: Exclusion NG 2) |  |  |  |  |  | 325
24 | GUCACAUGGGUAUAGGAUCACAUGAGGAUCACCCAUGUGACUAACAAGCUUUUUGCUCGUCUUAUGUCUAUGUGAAU [Stov1/18-A2] (Eterna round: R97, puzzle: Sensor, turn-off variant 1) | 26.2 | 32.4 |  |  |  | 
25 | CCGGAAAUACAGGAUAUCGUAUCGGAUACGAUACGAGAAGGGUAUACAUGAGGAUCACCCAUGUGUCCUACCGG [Fiskers Ex 6 - 51] (puzzle: Exclusion 6) |  |  |  | 23.6 |  | 
